The target in the assay is Ubiquitin-7-amino-4-methylcoumarin (human) (UniProt P0CG48).
For the substance “TYMV PRO L732A/L765A mutant, N-terminally 6-histidine tagged (enzyme)”, the Kapp (apparent kcat/Km) of Ub-AMC hydrolysis, far from saturating conditions turned out to be 2510 M⁻¹ s⁻¹.
With “TYMV PRO E759G/N760G mutant, N-terminally 6-histidine tagged (enzyme)” the figure was 2060 M⁻¹ s⁻¹; with “Turnip yellow mosaic virus (TYMV) PRO domain, N-terminally 6-histidine tagged, wild type (enzyme)”, 2650 M⁻¹ s⁻¹.
Turning to “TYMV PRO I847D mutant, N-terminally 6-histidine tagged (enzyme)”, the Kapp (apparent kcat/Km) of Ub-AMC hydrolysis, far from saturating conditions stood at 14 M⁻¹ s⁻¹.
Then “TYMV PRO I847A mutant, N-terminally 6-histidine tagged (enzyme)”, with 215 M⁻¹ s⁻¹.

These data come from PMC3744425.
